In patent US20220228157A1, “GENE EDITING IN DIVERSE BACTERIA” (priority 2019, published 2022):

What was measured:
Type in all cases: cell-based, Escherichia coli
E. coli = assay: Editing efficiency by NGS, non-coding mismatch at a non-essential gene; conditions: silent mismatch MAGE oligo, SEER plasmid system
Description: Top-performing SSAPs and SSAP/SSB pairs from experiments in E. coli, L. lactis, and M. smegmatis are shown in FIG. 2A, FIG. 2B and FIG. 2C, respectively. Bars in red are the proteins that had previously been reported in the literature. The proteins listed were found after ten rounds of selection for protein variants that enabled the introduction of an oligonucleotide that conferred a genomic edit that provided antibiotic resistance. Unbiased editing efficiency was tested in each case by introducing a non-coding base change at a non-essential gene and measuring the frequency of incorporation via next generation sequencing.
Their recombineering efficiency was tested against Redβ expressed off of its wild-type codons on the same plasmid system used for the SEER selections. […]
The efficiency of each SSAP or SSAP/SSB pair was measured by expressing them off of their host-specific plasmid in the naïve parent strain and running a recombineering cycle with an oligo that confers a 4-nucleotide non-coding mismatch in a non-essential gene. The allele was then amplified by PCR and editing efficiency was measured by next-generation sequencing.
To measure single locus editing, a recombineering cycle was run with an oligo that confers a single base pair non-coding mismatch in a non-essential gene. The allele was then amplified by PCR and editing efficiency was measured by NGS as described above. […]

E. coli MG1655 = assay: DIvERGE mutagenesis of gyrA, gyrB, parC, parE with ciprofloxacin selection; conditions: one round of DIvERGE
E. coli SEER chassis = assay: SEER library selection (frequency and enrichment by NGS); conditions: Broad RecT Library, 10 rounds of SEER
Description: Therefore, it was determined whether by screening additional RecT variants, again exploiting the increased throughput of SEER compared to previous efforts, one might discover recombineering proteins further improved over Redβ and PapRecT. To this aim a second library was constructed, identifying a maximally diverse group of 109 RecT variants, 106 of which were synthesized successfully, which was called Broad RecT Library (see Methods for more details). Next, as previously described, 10 rounds of SEER selection was performed on Broad RecT Library (FIGS. 8A-8B), and upon plotting frequency against enrichment after the final selection, a clear winner emerged (FIG. 9A). […]
Native resistance alleles were identified in each of the three species for resistance to rifampicin (rif) at the rpoB locus or streptomycin (stm) at the rpsL locus. The concentration of antibiotic necessary to confer a selective benefit to the resistant allele was determined for each strain. […]
Primers were designed to amplify a 215 bp product containing the barcode region of the SSAP libraries from the pARC8 plasmid and to add on Illumina adaptors. […] Barcoded amplicons were then purified with AMPure XP magnetic beads (Beckman Coulter), pooled, and the final pooled library was quantified with the NEBNext Library Quant Kit for Illumina (NEB). […]

Row | Molecule | Efficiency of recombineering at ynfF by NGS (E. coli) | Colonies relative to Redβ and PapRecT (E. coli MG1655; 250 ng/mL CIP, 130 oligos) | Resistant variants produced (E. coli MG1655; 1,000 ng/mL CIP) | Frequency against enrichment after final selection (E. coli SEER chassis)
1 | PapRecT: SSAP from Pseudomonas aeruginosa, SEQ ID NO: 24, UniParc ID: UPI0001E9E6CB (protein, listed as Pseudomonas aeruginosa) MGTALTPLLTKFATRYEMGTTPEEVANTLKQTCFKGQVNDSQMVALLIVADQYKLNPFTKELYAFPDKNNGIVPVVGVDGWARIINENPQFDGMEFSMDQQGTECTCKIYRKDRSHAISATEYMAECKRNTQPWQSHPRRMLRHKAMIQCARLAFGFAGIYDQDEAERIVERDVTPAEQYEDVSEAICLIKDSPTMEDLQAAFSNAWKAYKTKGARDQLTAAKDQRKKELLDAPIDVEFEETGDDRAA | 31%±2% |  |  | 
2 | CspRecT: RecT SSAP (UniParc ID: UPI0001837D7F) from a phage of Collinsella stercoris (protein, Collinsella stercoris DSM 13279) MNQIVKFTDDSGLAVQVTPDDVRRYICENATEKEVGLFLQLCQTQRLNPFVKDAYLVKYGGAPASMITSYQVFNRRACRDANYDGIKSGVVVLRDGDVVHKRGAACYKKAGEELIGGWAEVRFKDGRETAYAEVALDDYSTGKSNWAKMPGVMIEKCAKAAAWRLAFPDTFQGMYAAEEMDQAQQPEQVRAQAEQPVDLQPIRELFKPYCEHFGITPAEGMTAVCGAVGAEGMHSMTEQQARRARAWMEEEMAAPAVEAEYEVVDEGEVF |  | more than ten times as many colonies | only the use of CspRecT produced resistant variants | clear winner
